Data reported in EP4421085A1.

Experiments:
[1] = target: recombinant human alpha synuclein A30P (human) (UniProt P37840); test: cell-based or functional assay
[2] = target: recombinant human alpha synuclein A53T (human) (UniProt P37840); test: cell-based or functional assay
[3] = target: recombinant human alpha synuclein E46K (human) (UniProt P37840); test: cell-based or functional assay
[4] = target: recombinant human wild type alpha synuclein (human) (UniProt P37840); test: cell-based or functional assay
[5] = target: biotinylated alpha synuclein (aSN) 1-140 (UniProt P37840); test: SPR (Biacore 8K), biotinylated aSN on SA chip, binder as analyte, 25 °C
[6] = target: biotinylated alpha synuclein (aSN) 1-140 (UniProt P37840); test: SPR (Biacore 8K), biotinylated aSN on SA chip, binder as analyte, 37 °C

Ranking of the binders in figure 5 (ThT aggregation assay) [1]: 5 rank
Ranking of the binders in figure 5 (ThT aggregation assay) [2]: 6 rank
Ranking of the binders in figure 5 (ThT aggregation assay) [3]: 4 rank
Ranking of the binders in figure 5 (ThT aggregation assay) [4]: 3 rank
Kd [5]: 72.2 nM
koff [5]: 0.000114 s⁻¹
kon [5]: 1580 M⁻¹ s⁻¹
Kd [6]: 64.9 nM
koff [6]: 0.000252 s⁻¹
kon [6]: 3880 M⁻¹ s⁻¹
Substance: AS69 (designed binder)
